Here are results for six molecules from publication PMC2714321, “DNA binding kinetics of two response regulators, PlnC and PlnD, from the bacteriocin regulon of Lactobacillus plantarum C11”.

Details in all cases: protein: native; tags: N-terminal FLAG; chain copies: 2; label: biotin on forward strand; blunt
Data set [1] deals with T1, f-PlnC (Lactobacillus plantarum C11, UniProt Q48829 1-247).
T1 sequence: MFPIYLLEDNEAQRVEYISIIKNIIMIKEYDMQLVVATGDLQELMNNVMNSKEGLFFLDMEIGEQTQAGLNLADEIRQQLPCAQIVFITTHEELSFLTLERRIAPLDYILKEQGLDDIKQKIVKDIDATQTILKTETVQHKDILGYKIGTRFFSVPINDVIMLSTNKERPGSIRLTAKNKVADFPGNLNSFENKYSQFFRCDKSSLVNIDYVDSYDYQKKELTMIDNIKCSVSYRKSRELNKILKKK
The data set is described as follows: SPR; single site, Langmuir 1:1 model; SPR (Biacore 3000, SA chip): 20 mM Tris-HCl pH 8.0, 100 mM NaCl, 5 mM MgCl2, 1 mM EDTA, 0.025% Triton X-100, 25°C; signals corrected by subtraction of control DNA (S8/rc) reference cell, no outcome reported for it. Background: In SPR one partner is held on a chip, and binding of the other changes the refractive index at the surface.

For data set [2], the target named is T1, f-PlnC. Put plainly: SPR; site 1 (KD1), heterogeneous ligand model; SPR (Biacore 3000, SA chip): 20 mM Tris-HCl pH 8.0, 100 mM NaCl, 5 mM MgCl2, 1 mM EDTA, 0.025% Triton X-100, 25°C; signals corrected by subtraction of control DNA (S8/rc) reference cell, no outcome reported for it.
Data set [3] deals with T2, f-PlnD (Lactobacillus plantarum C11, UniProt Q48830 1-247).
T2 sequence: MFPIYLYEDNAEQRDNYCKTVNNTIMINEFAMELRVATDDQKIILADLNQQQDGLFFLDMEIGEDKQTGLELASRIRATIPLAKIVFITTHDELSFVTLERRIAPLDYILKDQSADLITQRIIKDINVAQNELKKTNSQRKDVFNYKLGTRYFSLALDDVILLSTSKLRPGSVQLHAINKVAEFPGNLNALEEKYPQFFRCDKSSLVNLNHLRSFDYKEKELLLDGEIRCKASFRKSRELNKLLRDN
The data set is described as above.

The target of data set [4] is T1, f-PlnC. The data set is described as follows: SPR; site 1 (KD1), heterogeneous ligand model; Discussion gives 1e-7 range; SPR (Biacore 3000, SA chip): 20 mM Tris-HCl pH 8.0, 100 mM NaCl, 5 mM MgCl2, 1 mM EDTA, 0.025% Triton X-100, 25°C; signals corrected by subtraction of control DNA (S8/rc) reference cell, no outcome reported for it.
For data set [5], the target named is T1, f-PlnC. The data set is described as follows: SPR; site 1 (KD1), ka fitted locally; SPR (Biacore 3000, SA chip): 20 mM Tris-HCl pH 8.0, 100 mM NaCl, 5 mM MgCl2, 1 mM EDTA, 0.025% Triton X-100, 25°C; signals corrected by subtraction of control DNA (S8/rc) reference cell, no outcome reported for it.

B1: PplnAΔL (dsDNA)
DNA 1: CATGGTGATTTTAAAATTTATTTAAAAAATGTACGTTAATAGAAATAATT
DNA 2: AATTATTTCTATTAACGTACATTTTTTAAATAAATTTTAAAATCACCATG
A word on the Kd: it is the constant that tells how readily two partners part at equilibrium. Turning to B1, the Kd in data set [1] came to 300 nM.

B2: PplnE (dsDNA)
DNA 1: ATTGGTATTTGACGTTAAGAGAACGTTTTTTTACTTTTATAATTTTTTCA
DNA 2: TGAAAAAATTATAAAAGTAAAAAAACGTTCTCTTAACGTCAAATACCAAT
In the case of B2, the Kd in data set [2] was 210 nM.

B3: PplnM (dsDNA)
DNA 1: TGAATTATTGTACGATAATATCTAAAAATATTACGTTTATAAAAATATCG
DNA 2: CGATATTTTTATAAACGTAATATTTTTAGATATTATCGTACAATAATTCA
Turning to B3, the Kd amounted to 560 nM in data set [3] and 380 nM in data set [2].

B4: PplnA (dsDNA)
DNA 1: CATGGTGATTCACGTTTAAATTTAAAAAATGTACGTTAATAGAAATAATT
DNA 2: AATTATTTCTATTAACGTACATTTTTTAAATTTAAACGTGAATCACCATG
As to B4, the Kd in data set [3] and in data set [4] was 1500 nM throughout.

B5: PplnJ (dsDNA)
DNA 1: ACTTTCAAGTTACGTTAAATCGATTAAATAGTACGATAACAAATTTAAAA
DNA 2: TTTTAAATTTGTTATCGTACTATTTAATCGATTTAACGTAACTTGAAAGT
Regarding B5, the dissociation constant Kd in data set [3] worked out at 12000 nM.

B6: PplnG (dsDNA)
DNA 1: GCCTGATGAGGACATTTATCATAAAATTATGTACGTTAATAGATAGTTGG
DNA 2: CCAACTATCTATTAACGTACATAATTTTATGATAAATGTCCTCATCAGGC
In the case of B6, the Kd was found to be 170 nM in data set [5] and 14000 nM in data set [3].
